Measurements as given in patent US20170072062A1 (published 2017).
Ends that are not written are not given here. * marks the point of attachment. Methacryloyl = C=C(C)C(=O)*

Legend:
[1] = target: type V tartrate-resistant acid phosphatase (TRAP) protein, immobilised on CM5 sensor chip; assay: SPR, TRAP on CM5 chip, binding curve fit (n = 2, Ave. ± StDev)
[2] = target: type V tartrate-resistant acid phosphatase (TRAP) protein, immobilised on CM5 sensor chip; assay: SPR, TRAP on CM5 chip, steady-state response vs concentration fit
[3] = target: type V tartrate-resistant acid phosphatase (TRAP) protein, immobilised on CM5 sensor chip; assay: SPR, TRAP on CM5 chip, binding curve fit
[4] = target: type V tartrate-resistant acid phosphatase (TRAP) protein, immobilised on CM5 sensor chip; assay: SPR, TRAP on CM5 chip, initial rate analysis of sensorgrams
[5] = target: type V tartrate-resistant acid phosphatase (TRAP) protein, immobilised on CM5 sensor chip; assay: SPR, TRAP on CM5 chip; upper end of a range told of the peptide-functionalized polymers
[6] = target: type V tartrate-resistant acid phosphatase (TRAP) protein, immobilised on CM5 sensor chip; assay: SPR, TRAP on CM5 chip; lower end of a range told of the peptide-functionalized polymers
[7] = target: T1, TRAP deposited by previous osteoclast activity on human cortical bone wafers (human, UniProt P13686 22-325, limits assumed); assay: confocal imaging of fluorescent peptide on human cortical bone wafers decorated with TRAP
T1 construct: The target is TRAP on a bone surface, not purified protein; The species follows from the human donor bone; also called bone resorption pits
T1 sequence (looked up): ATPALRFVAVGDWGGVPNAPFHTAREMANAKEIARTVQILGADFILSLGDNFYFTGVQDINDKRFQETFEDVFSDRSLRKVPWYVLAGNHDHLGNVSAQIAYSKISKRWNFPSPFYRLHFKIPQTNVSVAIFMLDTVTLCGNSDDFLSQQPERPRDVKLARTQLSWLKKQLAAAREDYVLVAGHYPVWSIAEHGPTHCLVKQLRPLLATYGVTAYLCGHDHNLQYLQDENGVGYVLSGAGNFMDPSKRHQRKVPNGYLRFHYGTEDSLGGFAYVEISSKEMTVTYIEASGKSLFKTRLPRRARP
Description: Equal concentrations of fluorescently labeled TBP and SCP are prepared in 1× phosphate-buffered saline (PBS). Bone wafers are cut from cortical bone obtained from the femur of a human donor cadaver and incubated in peptide solutions overnight, washed twice with 1×PBS, and then visualized via confocal imaging. Stacked sections are compressed into 2D images to allow for qualitative analysis as in FIG. 3A through FIG. 3D.

B1: TRAP-binding peptide (TBP) (peptide)
peptide: TPLSYLKGLVTVG
With B1 the Kd [1] was 795 µM, the Kd [2] was 200 µM and the Kd [3] was 700 µM.

B2: 5% TBP-functionalized PEG polymer, M:CTA:I 250:1:0.1, Mn 42.3 kDa (Table 4) (peptide)
peptide: Methacryloyl-TPLSYLKGLVTVG
modifications: not fully specified; also: RAFT copolymer with PEG methyl ether methacrylate, about 5 peptides per chain
With B2 the Kd [4] was 80 µM.

B3: 5% TBP-functionalized PEG polymer, M:CTA:I 600:1:0.1, Mn 98.2 kDa (Table 4) (peptide)
peptide: Methacryloyl-TPLSYLKGLVTVG
modifications: not fully specified; also: RAFT copolymer with PEG methyl ether methacrylate, about 11 peptides per chain
B3 showed a Kd [4] of 140 µM.

B4: 10% TBP-functionalized polymer (pTBP), M:CTA:I 300:1:0.1, Mn 40.1 kDa (Table 4) (peptide)
peptide: Methacryloyl-TPLSYLKGLVTVG
modifications: not fully specified; also: RAFT copolymer with PEG methyl ether methacrylate, about 9 peptides per chain
Binder B4 has a Kd [4] of 60 µM.

B5: 20% TBP-functionalized PEG polymer, M:CTA:I 500:1:0.1, Mn 32.7 kDa (Table 4) (peptide)
peptide: Methacryloyl-TPLSYLKGLVTVG
modifications: not fully specified; also: RAFT copolymer with PEG methyl ether methacrylate, about 12 peptides per chain
B5 showed a Kd [4] of 70 µM.

B6: 5% peptide monomer TBP-functionalized PEG polymer (Table 1, Mn 103900 Da) (peptide)
peptide: Methacryloyl-TPLSYLKGLVTVG
modifications: also: RAFT copolymer with PEG monomethyl ether methacrylate, multivalent
B6 gave a Kd [5] of 7.1 to 21 µM and a Kd [1] of 21.7 µM.

B7: 10% peptide monomer TBP-functionalized PEG polymer (Table 1, Mn 69000 Da) (peptide)
peptide: Methacryloyl-TPLSYLKGLVTVG
modifications: also: RAFT copolymer with PEG monomethyl ether methacrylate, multivalent
B7 showed a Kd [1] of 12.7 µM.

B8: 20% peptide monomer TBP-functionalized PEG polymer (Table 1, Mn 26700 Da) (peptide)
peptide: Methacryloyl-TPLSYLKGLVTVG
modifications: also: RAFT copolymer with PEG monomethyl ether methacrylate, multivalent
B8 gave a Kd [6] of 7.1 to 21 µM and a Kd [1] of 7.5 µM.

B9: 5% TBP-functionalized PEG polymer, M:CTA:I 125:1:0.1, Mn 17.1 kDa (Table 4) (peptide)
peptide: Methacryloyl-TPLSYLKGLVTVG
modifications: not fully specified; also: RAFT copolymer with PEG methyl ether methacrylate, about 3 peptides per chain
B9 showed a Kd [4] of 70 µM.

B10: fluorescently labeled scrambled control peptide (SCP) (peptide)
peptide: VPVGTLSYLKLTG
modifications: also: fluorescent cadaverine coupled, site not given here
notes: also called fluorescently labeled SCP; Control (SCP)
B10: no binding [7].
